According to US11673916B2, “Neuroprotective peptides and methods of their use” (University of Pittsburgh—Of the Commonwealth System of …, priority 2020, dated 2023):

Biological target: T1, Kv2.1-VAPA association (Rattus norvegicus, UniProt P15387+Q9Z270)
T1 construct: endogenous in cells; host or cells: primary rat cortical neurons (untransfected, fixed and immunolabelled)
T1 sequence (P15387 1-857): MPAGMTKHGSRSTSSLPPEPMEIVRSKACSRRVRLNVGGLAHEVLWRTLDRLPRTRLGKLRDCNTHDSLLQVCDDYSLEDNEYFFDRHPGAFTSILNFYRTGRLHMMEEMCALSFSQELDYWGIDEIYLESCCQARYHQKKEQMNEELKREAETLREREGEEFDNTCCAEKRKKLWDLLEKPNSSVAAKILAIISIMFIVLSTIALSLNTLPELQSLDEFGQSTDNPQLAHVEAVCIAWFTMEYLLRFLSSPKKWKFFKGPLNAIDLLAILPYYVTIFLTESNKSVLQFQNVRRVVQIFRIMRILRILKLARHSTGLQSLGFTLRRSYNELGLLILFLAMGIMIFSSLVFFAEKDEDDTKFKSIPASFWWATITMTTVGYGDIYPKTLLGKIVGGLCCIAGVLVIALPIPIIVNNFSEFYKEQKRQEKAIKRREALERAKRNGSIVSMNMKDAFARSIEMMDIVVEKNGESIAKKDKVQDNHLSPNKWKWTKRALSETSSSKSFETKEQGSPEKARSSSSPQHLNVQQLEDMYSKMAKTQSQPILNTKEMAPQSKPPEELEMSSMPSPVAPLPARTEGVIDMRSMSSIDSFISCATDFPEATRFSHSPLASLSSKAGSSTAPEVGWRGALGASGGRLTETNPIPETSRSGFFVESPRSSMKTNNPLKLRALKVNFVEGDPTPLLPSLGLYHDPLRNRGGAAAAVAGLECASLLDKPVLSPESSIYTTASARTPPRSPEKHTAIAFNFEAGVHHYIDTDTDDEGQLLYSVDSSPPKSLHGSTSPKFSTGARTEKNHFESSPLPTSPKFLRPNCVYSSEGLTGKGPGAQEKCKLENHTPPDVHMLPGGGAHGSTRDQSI
T1 sequence (Q9Z270 2-249 limits assumed): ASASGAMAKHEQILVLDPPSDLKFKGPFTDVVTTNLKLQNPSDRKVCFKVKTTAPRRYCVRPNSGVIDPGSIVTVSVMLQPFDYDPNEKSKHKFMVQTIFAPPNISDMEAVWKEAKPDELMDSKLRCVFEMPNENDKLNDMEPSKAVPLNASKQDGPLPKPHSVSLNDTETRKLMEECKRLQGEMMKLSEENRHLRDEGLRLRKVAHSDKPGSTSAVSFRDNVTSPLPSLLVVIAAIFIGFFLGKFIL
Assay: Proximity ligation assay (PLA) of Kv2.1-VAPA association in cortical neurons
Format: cell-based
Settings: 10 μM peptide, 2-hour treatment, means+/-SEM (FIG. 3C)
Protocol: Duolink proximity ligation assay (PLA) technology (Sigma-Aldrich, St. Louis, Mo.) was utilized to assess in situ protein-protein interaction between Kv2.1 and vesicle-associated […] protein (VAMP)-associated protein A (VAPA). Primary cortical neurons on glass coverslips were treated in 24-well plates with vehicle (dH2O), TAT-Sc-2 (10 μM), or TAT-DP-2 (10 μM) for 2 hours at 37° C./5% CO2. Neurons were then rinsed with 2 mL ice-cold sterile PBS and then transferred to 1 mL 4% paraformaldehyde (PFA) in PBS for 20 minutes to fix. Coverslips were transferred to 1 mL 0.1 M glycine (in PBS) to quench fixation and rinsed three times in 1 mL PBS. […]
PLA puncta were imaged on a Nikon A1+ confocal microscope (Nikon, Tokyo, Japan) with a 60× objective. […] PLA puncta signals were then obtained by capturing 25 optical sections (0.5 μm) that constrained the entire Z-width of PLA-TRITC fluorescence as MAX-IP files. […] NIS-Elements AR object count feature was then utilized to analyze the quantity of PLA puncta per cell. […] As distinct local PLA puncta-TRITC auto-fluorescence (markedly different in appearance from PLA puncta) was noted, local background subtraction using a small ROI within this region was performed in a protocol similar to that described earlier (Glynn, et al., Nat Protoc. 1: 1287-1296, 2006). […]

YGRKKRRQRRRDFSSIST [TAT-Sc-2, TAT-linked scramble control peptide]
PLA puncta per square micron of neuronal soma: 0.10+/−0.06 #PLA puncta/sq. micron of cell soma

YGRKKRRQRRRSIDSFTS [TAT-DP-2, TAT-linked declustering peptide 2]
PLA puncta per square micron of neuronal soma: 0.06+/−0.01 #PLA puncta/sq. micron of cell soma
